Target: Sho1 SH3 (SHO1_YEAST), P40073
Test: SPOT array

Chain of Sho1 SH3 (SHO1_YEAST), P40073 (P40073 295-366): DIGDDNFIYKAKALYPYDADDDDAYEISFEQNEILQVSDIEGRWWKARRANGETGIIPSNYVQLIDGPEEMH

Row | Binder | normalised SPOT signal, Boehringer light units (BLU); mean over the file's lines of this peptide
1 | FFHPAIPLKNAAPF [112-125 Hypothetical ORF] | 162
2 | DYLPQHPHRTSSLP [109-122 scaffold protein for MAP kinase cascade] | 87.8
3 | DSIPVDPEKVVAIV [216-229 acetyl CoA hydrolase] | 91
4 | DSGPQRPKRTRAKG | 202
5 | DVLPAGPVRSLEGA [122-135 Hypothetical ORF] | 115
6 | DSLPFAPLRKVYEL [139-152 Hypothetical ORF] | 96.8
7 | FWNPENPYKFVHPR [171-184 " 1,4-glucan-6-(1,4-glucano)-transferase"] | 129
8 | FDFPLSPVKHENPT [196-209 Product of gene unknown] | 27.7
9 | GAKPKIPSKLYQSV [124-137 Unknown] | 145
10 | ENKPFKPPRRVGSN [41-54 Putative helicase similar to RAD54] | 164
11 | GNTPDAPKRGFLGY [44-57 Hexose transporter] | 45.5
12 | EMIPSSPQRKSVSN [51-64 Product of gene unknown] | 164
13 | EHKPVSPDKIGTFT [81-94 transcription factor] | 0
14 | ELPPTHPIRLGLAL [164-177 Homolog of mammalian 14-3-3 proteins;member of conserved eukaryotic 14-3-3 gene family] | 161
15 | FSHPLSPLKSNFID [74-87 Hypothetical ORF] | 164
16 | ESHPELPNKDVKLD [158-171 putative methylenetetrahydrofolate reductase (mthfr)] | 53.7
17 | FRFPRLPQKKKEEL [106-119 " mRNA guanylyltransferase (mRNA capping enzyme), alpha subunit"] | 773
18 | ELEPQHPLRHKSSL [53-66 "glucose repression protein, a component of the Snf1 complex"] | 102
19 | DSIPLEPKKAKHLM [82-95 50-kDa subunit of ORC] | 133
20 | GGDPTKPVRTWNDL [193-206 subunit of a cytoplasmic histone acetyltransferase] | 112
21 | GAPPTTPSRPRTTT [91-104 phosphatidylserine decarboxylase located in vacuole or Golgi] | 29.2
22 | ERDPNMPKRPTNAY [88-101 HMG1-box containing protein] | 83.8
23 | ERDPNAPKKPLTVF [100-113 35 kDa protein belonging to the high mobility group (HMG) fanily of proteins] | 157
24 | GPPPAMPARPTATT [192-205 " contains 3 SH3 domains, interacts with Bee1p"] | 89.9
25 | ENVPLYPSRRNIWE [81-94 Hypothetical ORF] | 178

Continued, values first:

Row | normalised SPOT signal, Boehringer light units (BLU); mean over the file's lines of this peptide | Binder
26 | 183 | EYSPLVPSKMSADK [356-369 mitochondrial protein; (putative) chaperone]
27 | 183 | EIAPLIPKKPALRK [597-610 component of vacuolar membrane protein complex]
28 | 4360 | FTAPPVPTKKKSKN [316-329 " Yeast homologue of mammalian GRASP proteins, also localised to the Golgi apparatus."]
29 | 156 | GITPVGPGKFSRSA [256-269 mitochondrial ribosomal protein L2 of the large subunit]
30 | 127 | ELDPISPLKVPLTA [276-289 involved in cell wall biogenesis]
31 | 884 | FQPPPKPFRRSQSS [657-670 Hypothetical ORF]
32 | 132 | EILPQAPAKKVFES
33 | 121 | FPYPFKPSRVGVKY [440-453 Hypothetical ORF]
34 | 333 | DSLPKLPFRSWGQP [490-503 Amino acid permease]
35 | 257 | FSKPQEPVKAEEAE [393-406 Actin binding protein]
36 | 5100 | EIPPPLPPKIMVHS [528-541 Ubiquitin-specific protease]
37 | 86.7 | EAAPQLPSRSSAAP [505-518 Actin binding protein]
38 | 56.7 | EYFPISPEKKEEME [591-604 Hypothetical ORF]
39 | 45.8 | ENFPIVPLKSVAQD [638-651 transcription factor]
40 | 281 | EILPVKPTKKSSKK [808-821 involved in bud site selection]
41 | 275 | FHDPILPRRTSTFL
42 | 139 | GLEPNTPLKSIKVD [340-353 isopropylmalate isomerase]

Row | normalised SPOT signal, Boehringer light units (BLU); mean over the file's lines of this peptide | Binder
43 | 214 | FPYPGNPLKIINYE [862-875 Pho85 kinase inhibitor]
44 | 132 | DVYPHEPAKNGEGS [311-324 3-phosphoglycerate dehydrogenase]
45 | 102 | ELPPIKPPRPTSTT [619-632 " contains 3 SH3 domains, interacts with Bee1p"]
46 | 163 | EIAPSLPSRNSIPA [471-484 Actin binding protein]
47 | 213 | GNIPVFPAKFGIQF [476-489 Mitochondrial outer membrane protein involved in mitochondrial morphology and inheritance]
48 | 105 | EYHPIKPLRSSSST [234-247 Hypothetical ORF]
49 | 32.8 | ETVPTEPTRYNYQN [1359-1372 negative regulator of early meiotic gene expression]
50 | 182 | EVSPVEPKRTENER [687-700 putative serine/threonine kinase]
51 | 166 | FPDPNNPSKVQIRM [375-388 transcription factor]
52 | 483 | FLPPPKPFRHTETK [587-600 Hypothetical ORF]
53 | 441 | FISPHLPMKGRLVL [471-484 Hypothetical ORF]
54 | 120 | GGQPPVPVRMQPQP
55 | 69.7 | ENAPANPSKALKVK [549-562 Arf-binding protein]
56 | 130 | EANPDNPKKLDLKA [783-796 Hypothetical ORF]
57 | 75.3 | DYQPLSPPRELDPD [249-262 Hypothetical ORF]
58 | 224 | DYLPPVPEKNAGKQ [274-287 Mitochondrial ribosomal protein MRPL35 (YmL35)]
59 | 284 | FVIPGVPSKSYSLF [310-323 H+-biotin symporter]
